The values that follow come from publication PMC7721913 (The Journal of Cell Biology, 2020).

Broadly, the Kd is the free concentration of one partner at which half of the binding sites on the other are occupied at equilibrium, for simple one-to-one binding. A lower Kd goes with tighter binding. For orientation: stoichiometry N means a count of units in the complex or per binding partner.

In this test the target is KLC1 TPR1-6 fragment (human KNS2 residues 205-501) (human, UniProt Q07866 205-501). In words: ITC. On the technique in general: In ITC the heat of successive injections is recorded.
Chain of KLC1 TPR1-6 fragment (human KNS2 residues 205-501) (Q07866 205-501): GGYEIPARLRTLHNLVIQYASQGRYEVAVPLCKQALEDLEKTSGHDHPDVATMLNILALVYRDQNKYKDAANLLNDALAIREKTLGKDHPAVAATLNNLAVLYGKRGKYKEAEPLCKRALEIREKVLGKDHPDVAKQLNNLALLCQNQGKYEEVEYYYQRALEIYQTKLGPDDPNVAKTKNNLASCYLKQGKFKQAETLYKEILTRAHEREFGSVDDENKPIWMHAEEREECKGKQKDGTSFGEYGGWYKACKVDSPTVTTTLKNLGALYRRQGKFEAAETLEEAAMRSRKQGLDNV

ESEMEDAYHEHQANLLR [WT SFPQ peptide spanning the Y-acidic motif]: the Kd was 3.83 ± 2.31 µM, the dH is -2.05 ± 0.438 kcal/mol and the “stoichiometry N” value was found to be 0.964 ± 0.143.
